Here are results for one protein from PMC10208891.

The nature of data set [1]: anti-Flag immunofluorescence with DAPI. Conditions: glycan lost; control: SFB-YTHDF1-WT, untreated.
The nature of data set [2]: nuclear and cytoplasmic fractionation, immunoblot. Conditions: glycan lost; control: SFB-YTHDF1-WT.

B1: YTH domain family 1 (YTHDF1): AFA (protein)
parent chain: MSATSVDTQRTKGQDNKVQNGSLHQKDTVHDNDFEPYLTGQSNQSNSYPSMSDPYLSSYYPPSIGFPYSLNEAPWSTAGDPPIPYLTTYGQLSNGDHHFMHDAVFGQPGGLGNNIYQHRFNFFPENPAFSAWGTSGSQGQQTQSSAYGSSYTYPPSSLGGTVVDGQPGFHSDTLSKAPGMNSLEQGMVGLKIGDVSSSAVKTVGSVVSSVALTGVLSGNGGTNVNMPVSKPTSWAAIASKPAKPQPKMKTKSGPVMGGGLPPPPIKHNMDIGTWDNKGPVPKAPVPQQAPSPQAAPQPQQVAQPLPAQPPALAQPQYQSPQQPPQTRWVAPRNRNAAFGQSGGAGSDSNSPGNVQPNSAPSVESHPVLEKLKAAHSYNPKEFEWNLKSGRVFIIKSYSEDDIHRSIKYSIWCSTEHGNKRLDSAFRCMSSKGPVYLLFSVNGSGHFCGVAEMKSPVDYGTSAGVWSQDKWKGKFDVQWIFVKDVPNNQLRHIRLENNDNKPVTNSRDTQEVPLEKAKQVLKIISSYKHTTSIFDDFAHYEKRQEEEEVVRKERQSRNKQ
On to B1, for which the localisation_or_trafficking entry in data set [1] and in data set [2] was “changes” throughout.
